The supplement of paper PMC10126150
± gives the standard deviation of the averaged measurements.

system: ATP; assay: switch fluorescence ratio, 500 uM ATP over buffer (Cy3 cluster intensity, sum of 5 cycles each) (fold (ratio)); higher = stronger signal-on switching upon ATP binding; sequences stand for … in TCGTCGGCAGCGTCAGATGTGTATAAGAGACAGTTTTTTTTTTTTTTTTTTTTTTTTT…TC; conditions: aptamer strand: ATP DNA aptamer (quencher-CACCTGGGGGAGTATTGCGGAGGAAGG + anchor), 100 nM annealed; ATP concentration: 500 uM
How it was run: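 Values give the fluorescence ratio for each switch-domain sequence, averaged from per-cluster ratios of summed target-cycle to summed buffer-cycle Cy3 intensity. The Cy3-labelled switching-strand clusters sat on a modified Illumina MiSeq flow-cell, were annealed to 100 nM quencher-labelled ATP aptamer, and were imaged in selection buffer, then after 15 min with 500 uM ATP at 22 °C. Five cycles ran with NaOH stripping and re-annealing between them, and clusters outside 100-1000 RFU were excluded.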
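Note: ATP exposure 15 min at 22 °C before imaging.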

| Sequence | switch fluorescence ratio |
| --- | --- |
| TTTGGACGCT | 1.04 ± 0.038 |
| TTTGGAGAAT | 1.02 ± 0.025 |
| TTTGGAGAGA | 1.001 ± 0.01 |
| TTTGGAGATG | 1.02 ± 0.023 |
| TTTGGAGCTT | 4.01 ± 2.7 |
| TTTGGAGGAG | 0.997 ± 0.048 |
| TTTGGAGTCT | 0.982 ± 0.031 |
| TTTGGAGTTG | 0.987 ± 0.064 |
| TTTGGATAGA | 0.998 ± 0.025 |
| TTTGGATCCT | 1.02 ± 0.019 |
| TTTGGATTCC | 0.998 ± 0.034 |
| TTTGGCCGCT | 0.985 ± 0.011 |
| TTTGGCGAGT | 1.01 ± 0.021 |
| TTTGGCGCGA | 1.43 ± 0.58 |
| TTTGGCTAAG | 0.976 ± 0.027 |
| TTTGGCTGAG | 1.004 ± 0.009 |
| TTTGGCTTCG | 1.042 ± 0.0038 |
| TTTGGCTTCT | 1.04 ± 0.073 |
| TTTGGCTTTA | 0.977 ± 0.017 |
| TTTGGGACAT | 1.01 ± 0.025 |
| TTTGGGAGAT | 0.951 ± 0.023 |
| TTTGGGATAG | 1.01 ± 0.049 |
| TTTGGGATCA | 0.9846 ± 0.0073 |
| TTTGGGATTC | 0.979 ± 0.028 |
| TTTGGGCACG | 1.05 ± 0.017 |
| TTTGGGCAGT | 1 ± 0.017 |

| Sequence | switch fluorescence ratio |
| --- | --- |
| TTTGGGCATT | 1.04 ± 0.035 |
| TTTGGGCCTG | 1.001 ± 0.0022 |
| TTTGGGCTGC | 1.28 ± 0.41 |
| TTTGGGCTGG | 1.01 ± 0.06 |
| TTTGGGGAAC | 1.02 ± 0.035 |
| TTTGGGGATG | 1 ± 0.033 |
| TTTGGGGCCC | 1.03 ± 0.041 |
| TTTGGGGCCT | 1.06 ± 0.15 |
| TTTGGGGCTG | 1.04 ± 0.11 |
| TTTGGGGGAC | 0.984 ± 0.05 |
| TTTGGGGGCT | 1.01 ± 0.04 |
| TTTGGGGTT | 1.02 ± 0.018 |
| TTTGGGGTTA | 0.996 ± 0.034 |
| TTTGGGTCTG | 0.992 ± 0.026 |
| TTTGGGTGGC | 1.03 ± 0.036 |
| TTTGGGTTGA | 1.03 ± 0.017 |
| TTTGGTACAC | 1.01 ± 0.021 |
| TTTGGTCTCA | 1 ± 0.02 |
| TTTGGTGGTC | 0.971 ± 0.022 |
| TTTGGTTAC | 1.05 ± 0.023 |
| TTTGGTTACA | 1.01 ± 0.04 |
| TTTGGTTCGC | 0.971 ± 0.037 |
| TTTGGTTGAT | 0.9967 ± 0.0087 |
| TTTGGTTGCC | 1.05 ± 0.085 |
| TTTGGTTTTT | 0.999 ± 0.031 |
| TTTGTAAATA | 1.008 ± 0.0069 |

| Sequence | switch fluorescence ratio |
| --- | --- |
| TTTGTAAGAA | 1.009 ± 0.006 |
| TTTGTACCCT | 1.064 ± 0.0021 |
| TTTGTAGGGG | 0.981 ± 0.016 |
| TTTGTATCAT | 1.017 ± 0.0076 |
| TTTGTATGTT | 0.991 ± 0.051 |
| TTTGTATTCA | 1.01 ± 0.06 |
| TTTGTCAGGG | 0.992 ± 0.062 |
| TTTGTCCAGT | 0.991 ± 0.041 |
| TTTGTCGTCG | 1.004 ± 0.01 |
| TTTGTCTATA | 1 ± 0.017 |
| TTTGTCTGGA | 0.991 ± 0.032 |
| TTTGTGACTA | 1.01 ± 0.049 |
| TTTGTGCCTC | 0.9528 ± 0.0093 |
| TTTGTGGATT | 1.06 ± 0.069 |
| TTTGTGTATG | 0.9701 ± 0.0032 |
| TTTGTGTTGG | 0.993 ± 0.027 |
| TTTGTTAGTG | 0.972 ± 0.021 |
| TTTGTTCTGT | 1.01 ± 0.018 |
| TTTGTTGATT | 0.973 ± 0.022 |
| TTTGTTGCCA | 0.988 ± 0.0019 |
| TTTGTTGCTC | 1 ± 0.03 |
| TTTGTTGGGA | 1.02 ± 0.013 |
| TTTGTTGTAA | 1.01 ± 0.034 |
| TTTGTTGTCA | 0.974 ± 0.016 |
| TTTGTTGTGT | 1.02 ± 0.025 |
| TTTGTTGTTG | 0.984 ± 0.03 |

| Sequence | switch fluorescence ratio |
| --- | --- |
| TTTGTTTCCA | 0.962 ± 0.012 |
| TTTGTTTTA | 1.01 ± 0.019 |
| TTTGTTTTCA | 0.989 ± 0.034 |
| TTTGTTTTGA | 1.02 ± 0.027 |
| TTTTAAAAAC | 1.05 ± 0.049 |
| TTTTAAAACA | 1.02 ± 0.029 |
| TTTTAAAAGA | 0.995 ± 0.027 |
| TTTTAAAATG | 1.01 ± 0.032 |
| TTTTAAATAA | 1.01 ± 0.026 |
| TTTTAAATGT | 1.04 ± 0.029 |
| TTTTAAATTG | 0.964 ± 0.023 |
| TTTTAACATT | 1.06 ± 0.081 |
| TTTTAACTCG | 1.01 ± 0.023 |
| TTTTAAGAAT | 1.005 ± 0.0078 |
| TTTTAAGCAG | 1.05 ± 0.036 |
| TTTTAAGCCC | 1.03 ± 0.046 |
| TTTTAAGCGG | 0.999 ± 0.015 |
| TTTTAATATT | 1.05 ± 0.11 |
| TTTTAATCAT | 1.6 ± 0.88 |
| TTTTAATTCG | 1.057 ± 0.0035 |
| TTTTAATTT | 0.997 ± 0.042 |
| TTTTAATTTT | 0.998 ± 0.029 |
| TTTTACAAGG | 0.983 ± 0.031 |
| TTTTACCGAG | 1.047 ± 0.0032 |
| TTTTACCGTA | 1.04 ± 0.034 |
| TTTTACGTGA | 1.057 ± 0.0092 |

| Sequence | switch fluorescence ratio |
| --- | --- |
| TTTTACTATG | 0.9893 ± 0.0041 |
| TTTTACTCGA | 1.03 ± 0.014 |
| TTTTACTTAA | 1.28 ± 0.37 |
| TTTTACTTTA | 1.06 ± 0.032 |
| TTTTAGAGCC | 1.04 ± 0.043 |
| TTTTAGAGTG | 1 ± 0.036 |
| TTTTAGATCT | 1.02 ± 0.016 |
| TTTTAGGACC | 1 ± 0.025 |
| TTTTAGGAGC | 0.985 ± 0.023 |
| TTTTAGGAT | 1.004 ± 0.0021 |
| TTTTAGGATT | 1.016 ± 0.0018 |
| TTTTAGGGCT | 0.989 ± 0.03 |
| TTTTAGGGTC | 1.11 ± 0.2 |
| TTTTAGGTAT | 1.02 ± 0.038 |
| TTTTAGGTTA | 0.986 ± 0.027 |
| TTTTAGGTTT | 1.06 ± 0.16 |
| TTTTAGTAAC | 1.02 ± 0.017 |
| TTTTAGTCTT | 1.04 ± 0.078 |
| TTTTAGTTAC | 1.073 ± 0.0044 |
| TTTTAGTTAT | 1.04 ± 0.037 |
| TTTTAGTTCG | 1 ± 0.028 |
| TTTTATAAAG | 1 ± 0.022 |
| TTTTATAGCG | 0.99918 ± 0.00023 |
| TTTTATAGTT | 1 ± 0.023 |
| TTTTATATGC | 1.19 ± 0.27 |
| TTTTATATTA | 1 ± 0.04 |

| Sequence | switch fluorescence ratio |
| --- | --- |
| TTTTATCCCA | 1.004 ± 0.0067 |
| TTTTATCTAG | 1.01 ± 0.012 |
| TTTTATGAGA | 0.978 ± 0.031 |
| TTTTATGATT | 0.997 ± 0.04 |
| TTTTATGGTG | 0.994 ± 0.019 |
| TTTTATGGTT | 0.997 ± 0.032 |
| TTTTATGTAT | 1.06 ± 0.048 |
| TTTTATTAGA | 0.974 ± 0.065 |
| TTTTATTCTT | 0.987 ± 0.016 |
| TTTTATTGTT | 1.01 ± 0.034 |
| TTTTATTTGG | 0.983 ± 0.018 |
| TTTTCAAGAC | 1.31 ± 0.28 |
| TTTTCAATCT | 0.9933 ± 0.0073 |
| TTTTCACGCA | 1.57 ± 0.53 |
| TTTTCATACT | 1.07 ± 0.046 |
| TTTTCATTAA | 0.9932 ± 0.008 |
| TTTTCATTAG | 1.03 ± 0.026 |
| TTTTCCAAAG | 1.01 ± 0.055 |
| TTTTCCAATA | 1.52 ± 0.13 |
| TTTTCCAGCG | 1.03 ± 0.013 |
| TTTTCCCTAT | 1.41 ± 0.71 |
| TTTTCCCTGG | 1.46 ± 0.62 |
| TTTTCCGGGG | 1.04 ± 0.045 |
